Test results reported in US10155985B2, “Evaluation of eosinophilic esophagitis” (CHILDREN'S HOSPITAL MEDICAL CENTER, priority 2004, dated 2018).

System: EE transcriptome
Assay: Genome-wide microarray transcript profiling of esophageal biopsies, EE patients vs normal individuals (EE transcriptome)
Details: Affymetrix Human Genome U133 plus 2, p<0.01
Outline: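 Distal esophageal biopsies from EE patients (n=76; >24 eosinophils/hpf, basal hyperplasia) and normal controls (n=13; 0 eosinophils/hpf) profiled on Affymetrix Human Genome U133 plus 2 chips. Expression by absolute call and average difference, global scaling; transcriptome genes defined as p<0.01 (Welch t-test) and ≥1.5-fold change.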

[1] = transcript level in esophageal biopsies of EE patients (n=76) compared to normal individuals (n=13)

Molecule | Fold Change [1] | Fold Change (transcript level in esophageal biopsies of EE patients compared to normal individuals (NL), >1 up-regulated, <1 down-regulated)
SEQ_ID_#142 (nucleic acid, listed as Homo sapiens) DNA: TAGAGGTTAAATGACCCCATTTGTGGGGTGGTTTATTGTTAAAATGATTAAACATGCTAAAATCACATGGAGTGGCTATTCCACTTTTGCCCTGACTCCATAGTGGGGCAAATGGGAACTACAGGAGTCACTTGGTTTGTGTGGCCTCTGGGGATGGTTAGACTTGGAGGGTTAGCGGTGAGCAGGTTAGCAAAGCCCCAAGCATCCTTCATGTAGTACACTTTTCCCAGCAGTAAAAAAATTCAGAGATTTCCCCCTTCTTCACTTTTCTTTCCTCCCTATATGTGCCCTACTTCTCATTCTCCTATGGCCCTGGAACCTCTTATGCTTCTGCCCGTTATGGTCTTAGACTAGATGATGAGGGAGGCTTTTCCTTGACACCAGCATTCCAGTCT | 2.896 | 
SEQ_ID_#1069 (nucleic acid, listed as Homo sapiens) DNA: GCCGCCTCCTCCTGGGCTGGGCCCGCGGTGTCTCGTCCCCTCGCGGAGCCGCTCCTGCCGCCGCCGCCGCCGCCTCCTCATTCATCCTCGTGCACCATAGGCGGCACAGGCACCAAGATGTCCAACCGAGTGGTCTGCCGAGAAGCCAGTCACGCCGGGAGCTGGTACACAGCCTCAGGACCGCAGCTGAATGCACAGCTAGAAGGTTGGCTTTCACAAGTACAGTCTACAAAAAGACCTGCTAGAGCCATTATTGCCCCCCATGCAGGATATACGTACTGTGGGTCTTGTGCTGCCCATGCTTATAAACAAGTGGATCCGTCTATTACCCGGAGAATTTTCATCCTTGGGCCTTCTCATCATGTGCCCCTCTCTCGATGTGCACTTTCCAGTGTGGATATATATAGGACACCTCTGTATGACCTTCGTATTGACCAAAAGATTTACGGAGAACTGTGGAAGACAGGAATGTTTGAACGCATGTCTCTGCAGACAGATGAAGATGAACACAGTATTGAAATGCATTTGCCTTATACAGCTAAAGCCATGGAAAGCCATAAGGATGAGTTTACCATTATTCCTGTACTGGTTGGAGCTCTGAGTGAGTCAAAAGAACAGGAATTCGGAAAACTCTTCAGTAAATATCTAGCGGATCCTAGTAATCTCTTTGTGGTTTCTTCTGATTTCTGCCATTGGGGTCAAAGGTTCCGTTACAGTTACTATGATGAATCCCAGGGGGAGATTTATAGATCCATTGAACATCTAGATAAAATGGGTATGAGTATTATAGAACAATTAGACCCTGTATCTTTTAGCAATTACTTGAAGAAATACCATAATACTATATGTGGAAGACATCCCATTGGGGTGTTATTAAATGCTATCACAGAGCTCCAGAAGAATGGAATGAATATGAGTTTTTCGTTTTTGAATTATGCCCAGTCGAGCCAGTGTAGAAACTGGCAAGACAGTTCAGTGAGTTATGCAGCTGGAGCACTCACGGTCCACTGAAGCTCTGAATCCTCAGGGATGCCACCTGCACATTCTCATACTCTGTCCGGGGTCCCAGCCTAGCCTTTACCACGATACTGGTCCTGGTTTGGGGGGATTCTGAAACCTCAAACTAATAGAACTTTCTTCTCTTTTTTTCTAGTAGGTGTAGTCCTTCCTTAATTTCAACTCATTAAAAAATGCTTTATAGTTTAGGGCAGTGGAAGGAAGGCTGGCATCAAAATATTTTGATCAAAAAAGATGACAATGTAAAGGCTCAGTTGTGGCAGACAGTTTTTT |  | 0.587
SEQ_ID_#116 (nucleic acid, listed as Homo sapiens) DNA: TGTAAGTATTTACTTTTAATTCTACTTTCAGGTGGAAAATGATGAGAACTCCTTAGGGGGTCTTTAATCTCAAGATTGTCAGTCTAGCTAAATATAATTAAAAGACTGCCTTCTGTGTTTACTGCTGAATAATGATGAGAAAAAATAGTGTAATTTTTTTAATGTTTGCTAACCAGGTTCTCCATAGACAACTTTAGTCAGTGGTCATAATATTGTAGATTTAGCTGCAAATTTAAGAGGTGAGAAAAGGAATATGTTTGTTCCTAGGTTTGTTCTAATCAGACCAATTCAAAGTTAATATTGCAAGGCTATACAACATCTATCTCATCCAAATTGTTGTTTTATAGCTTTCAAACATCCTTTTTAACTTCTCTGCTCTGCCACTCATCATTCCATTAGGGCAAAAAGAAACAAAACTTAAGCTTTGAAGCTCATTAGATACATACTTTAAAAAATAGATCAAAATAAGCAAAAAGTACAATTTGTATTATCTGCATGAGTTTCTAGTTATCAGTGACCTAAGCTAAGTCTGGCTTTTAGTAGCAAGATTTTAGCATACCAGGCTCTCAAGGGAGGTATTTCTCAGTATTATTTCAATTTTTAAAGGATAAAGACATGTTCTAATTTAAATTTATTGAAATTTGATAATCCATGTGACTTTTCAGTACTGTGCTTGGTGCTTTAGATGGAAATAGGATAAATATCTGACTCAATCATCCAGGAGTCATGATACATACTTTACAATCTGATTTA | 3.363 | 
